The text below walks through data of patent publication US20220016205A1, “METHODS OF OVERCOMING RESISTANCE TO IMMUNE CHECKPOINT INHIBITORS” (Board of Regents, The University of Texas System, priority 2018, published 2022).

Assay [1] relates to peritoneal macrophages. In words: qPCR of p38α, IL-1α, IL-1β, TNF-α, RANTES in peritoneal macrophages treated with BMP7 or BMP7 plus follistatin. In kind it is cell-based, mouse. The conditions noted are these: BMP7 plus follistatin compared with BMP7 only. From the text: (§1) Quantitative polymerase chain reaction (qPCR). Total RNA was isolated from cells and tumors with Triazol (Life Technologies) according to the manufacturer's protocol. For studies of BMP7, p38α, IL-1α, IL-1β, TNF-α, RANTES, IL-2, and IFN-γ expression, mRNA was retrotranscribed with the iScript™ gDNA Clear cDNA Synthesis Kit (BioRad) and analyzed by qPCR using SYBR Green (Life Technologies) with specific primers according to the manufacturer's protocol. The comparative Ct method was used to calculate the relative abundance of mRNAs compared with ACTB (beta-actin) expression for cancer cells or CD45 expression for immune cells.
(§2) Co-culture experiments and treatments. Viable cells were counted with a hemocytometer (0.4% Trypan blue solution) and diluted to 40,000 cells per well in 24-wells plates. Cells from 344SQP, 344SQR, 344SQ ctrl, or 344SQ-shBMP7 tumors were seeded at the top inserts (24-mm Transwell with 0.4-μm pore polycarbonate membrane insert, Sigma-Aldrich), and RAW 264.7 or CD4^+ T cells were seeded at the bottom of the transwell system. […] RNA was then isolated from RAW 264.7 or CD4^+ T cells and analyzed for p38α, IL-1α, IL-1β, TNF-α, RANTES, IL-2 and IFN-γ expression with qPCR.

Assay [2] deals with peritoneal macrophages. Description: qPCR in peritoneal macrophages co-cultured with 344SQR cells (transwell) with follistatin or K02288. The conditions noted are these: 344SQR co-culture plus follistatin versus 344SQR co-culture only, 24 or 48 hours (FIG. 3J). Type of assay: cell-based, mouse.
For assay [3], the system named is CD4^+ T cells. Description: qPCR of p38α, IFN-γ, IL-2 in activated CD4+ T cells treated with BMP7 or BMP7 plus follistatin. In kind it is cell-based, mouse. Conditions: BMP7 plus follistatin compared with BMP7 only, 24 hours (FIG. 4F).
From the text: as §1
as §2, with “system. CD4^+ T cells were isolated from splenocytes by using Dynabeads Untouched Mouse CD4 Cells Kit (Thermo Fisher Scientific—Life Technologies, Catalog #11416D) and activated with LEAF purified anti-mouse CD3c antibody (5 μg/mL) and LEAF purified anti-mouse CD28 antibody (1 μg/mL) (Biolegend).” for “system.”
(§3) Next, CD4^+ T cells were co-cultured with 344SQP or 344SQR cells, and 344SQR ctrl or 344SQR shBMP7 cells, and the expression of p38α, IFN-γ, and IL-2 analyzed. […] To confirm that these findings depended on BMP7 and not on some other secreted molecule, CD4^+ T cells were treated with BMP7 with or without follistatin and p38α, IFN-γ, and IL-2 expression evaluated. […]
(In general: Quantitative PCR measures a nucleic acid by following its amplification.)

For assay [4], the system named is CD4^+ T cells. Description: qPCR of p38α, IFN-γ, IL-2 in CD4+ T cells co-cultured with 344SQR cells plus follistatin. In kind it is cell-based, mouse. Conditions: 344SQR co-culture plus follistatin versus 344SQR without follistatin, 24 hours (FIG. 4G).
From the text: as §1
Co-culture experiments and treatments. Viable cells were counted with a hemocytometer (0.4% Trypan blue solution) and diluted to 40,000 cells per well in 24-wells plates. […] RNA was then isolated from RAW 264.7 or CD4^+ T cells and analyzed for p38α, IL-1α, IL-1β, TNF-α, RANTES, IL-2 and IFN-γ expression with qPCR.
as §3

Another assay has as its system 344SQR tumors. Description: Tumor growth and survival of mice with anti-PD1-resistant 344SQR tumors treated with follistatin, anti-PD1 or both. In kind it is in vivo, 129Sv/Ev mice. The conditions noted are these: follistatin 0.1 mg/kg i.p. (with or without anti-PD1 10 mg/kg), 2 weeks. How it is done: In vivo studies. All mouse studies were approved by the Institutional Animal Care and Use Committee (IACUC) of The University of Texas MD Anderson Cancer Center before their initiation; animal care was provided according to IACUC standards, and all mice had been bred and were maintained in our own specific pathogen-free mouse colony. For RRBS, RPPA and TILs studies, primary tumors were established by subcutaneous injection of 344SQP or 344SQR cells (0.5×10^6 in 100 μL of sterile phosphate buffered saline [PBS]) into the leg of syngeneic 129Sv/Ev mice (female, 12-16 weeks old). Mice were then given intraperitoneal injections of anti-PD1 or control IgG antibodies (10 mg/kg) (Bio X cell), starting on day 4 after tumor cell inoculation and continuing twice per week for a total of 4 doses. At 24 hours after the last anti-PD1 treatment, tumor tissues were collected for DNA (2 mice/group) and protein isolation (2 or 3 mice/group). For TILs isolation, tumor tissues (3 mice/group) were collected a week after the last treatment with anti-PD1. […] Tumors were measured with calipers three times per week and recorded as tumor volume (in mm^3)=width^2×length/2. […] Mouse survival rates were analyzed by using the Kaplan-Meier method and compared with log-rank tests.

B1: follistatin: BMP7 antagonist protein, natural inhibitor of BMP7 (R&D Systems, Catalog #769-FS-025) (protein, UniProt P19883 30-344, looked up)
Follistatin: GNCWLRQAKNGRCQVLYKTELSKEECCSTGRLSTSWTEEDVNDNTLFKWMIFNGGAPNCIPCKETCENVDCGPGKKCRMNKKNKPRCVCAPDCSNITWKGPVCGLDGKTYRNECALLKARCKEQPELEVQYQGRCKKTCRDVFCPGSSTCVVDQTNNAYCVTCNRICPEPASSEQYLCGNDGVTYSSACHLRKATCLLGRSIGLAYEGKCIKAKSCEDIQCTGGKKCLWDFKVGRGRCSLCDELCPDSKSDEPVCASDNATYASECAMKEAACSSGVLLEVKHSGSCNSISEDTEEEEEDEDQDYSFPISSILEW
As to B1, the “levels of p38α, IL-1α, TNF-α, IL-1β, and RANTES” value in the assay on peritoneal macrophages [1] is “higher levels”. Moreover, in the assay on peritoneal macrophages [2], the “expression of p38a and p38α-regulated cytokines and chemokines” value is on record as “higher expression”. The “expression of p38α, IFN-γ, and IL-2” value with CD4^+ T cells [3] and with CD4^+ T cells [4] was “higher expression” each time. The tumor growth entry in the assay on 344SQR tumors (compared with anti-PD1 therapy only (FIG. 5C)) is “decreased tumor growth”. Further, the survival entry in the assay with 344SQR tumors (compared with anti-PD1 therapy only, Kaplan-Meier (FIG. 5C)) is reported as “extended survival”.
